The target in test [1] is T1, human PD-1 (Sino Biological, Catalog Number: 10377-H08H) (human, UniProt Q15116 25-167).
T1 construct: Bought protein
As to the kind of experiment: BLI, Octet RED96e, antibody on AHC sensor, PD-1 100 nM. Background: In BLI a coated tip is dipped into the sample, and binding shifts an interference pattern.

Test [2] has as its target biotin-labeled human PD-1 (Acro, Catalog Number: PD1-H82E4) (human) (UniProt Q15116). As to the kind of experiment: flow cytometry, yeast-displayed Fab, titration of soluble PD-1.
Test [3] deals with biotin-labeled monkey PD-1 (Acro, Catalog Number: PD1-C82E6) (monkey (cyno)) (UniProt B0LAJ3). The description is as above.
Sequence of biotin-labeled monkey PD-1 (Acro, Catalog Number: PD1-C82E6) (monkey (cyno)) (B0LAJ3 entry or part of it limits assumed): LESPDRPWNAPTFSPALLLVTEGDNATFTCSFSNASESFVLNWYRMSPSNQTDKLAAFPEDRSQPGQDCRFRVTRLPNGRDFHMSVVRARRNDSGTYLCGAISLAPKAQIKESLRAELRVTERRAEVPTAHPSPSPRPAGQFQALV
Test [4] concerns the target T1, human PD-1 (Sino Biological, Catalog …). The experiment in a line: BLI, Octet RED96e.
Test [5] deals with T2, human PD-1 (Acro, Catalog Number: PD-1-H5221) (human, UniProt Q15116 25-167).
T2 construct: Bought protein
T2 sequence (Q15116 25-167 limits assumed): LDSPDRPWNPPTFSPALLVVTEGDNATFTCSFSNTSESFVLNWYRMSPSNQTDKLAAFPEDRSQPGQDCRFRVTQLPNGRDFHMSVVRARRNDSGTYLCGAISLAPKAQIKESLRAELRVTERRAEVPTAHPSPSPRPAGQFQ
The experiment in a line: BLI, Octet RED96e, antibody on AHC sensor, PD-1 100 nM.

The target in test [6] is T3, monkey PD-1 (Acro, Catalog Number: PD-1-C5223) (monkey, UniProt B0LAJ3 25-170).
T3 construct: Bought protein; not shown: any purification tag of the vendor's construct (Acro PD-1-C5223)
T3 sequence (B0LAJ3 entry or part of it limits assumed, form in doubt): as the sequence (B0LAJ3 entry or part of it limits assumed) above
The test is described as above.

Test [7] concerns the target T2, human PD-1 (Acro, Catalog Number: …). As to the kind of experiment: BLI, Octet RED96e.
Test [8] addresses T3, monkey PD-1 (Acro, Catalog Number: …). As to the kind of experiment: BLI, Octet RED96e.

Residue numbers refer to the chain shown, from its start. Numbers in names are those of the source.

T1 sequence (Q15116 25-167 limits assumed): as the sequence (Q15116 25-167 limits assumed) above
Sequence of biotin-labeled human PD-1 (Acro, Catalog Number: PD1-H82E4) (human) (Q15116 25-167 limits assumed): as above

B1: 1910h3hzL3H4 (antibody, V domains shown)
VH: QVQLVQSGAEVKKPGASVKVSCKASGFTFIDYEMHWVRQAPGQGLEWIGGIHPGSGGTAYNQKFKGRATLTADISISTAYMELSRLRSDDTAVYYCTREGFDVGWYFDVWGQGTTVTVSS
VL: DVVMTQSPLSLPVTLGQPASISCRSSQSIVHSDGDTFLEWYQQRPGQSPRLLIYKVSNRFSGVPDRFSGSGSGTDFTLKISRVEAEDVGVYYCFQGSHVPYTFGQGTKLEIK
notes: Humanized antibody; the description mentions human IgG4 S228P and kappa; also called humanized antibody of 46H3A8; 1910h3hzL3 light chain + 1910h3hzH4 heavy chain
By Kd is commonly meant the free concentration of one partner at which half of the binding sites on the other are occupied at equilibrium, for simple one-to-one binding. For orientation: koff means the first-order rate constant of dissociation. Broadly, the kon is the second-order rate constant of association. In test [1], B1 displayed a Kd of 8.04 nM, a dissociation rate constant (koff) of 0.00118 s⁻¹ and a kon of 147000 M⁻¹ s⁻¹.

B2: 41D2HzL4H3 parent sequence displayed on the yeast surface in the form of Fab (Fab, V domains shown)
VH: EVQLVESGGGLVKPGGSLRLSCAASGFTFSNYDMSWVRQAPGKGLEWVSTISGGGSYTYYADSVKGRFTISRDNAKNSLYLQMNSLRAEDTAVYYCVSPYYGMEYWGQGTLVTVSS
VL: DIQLTQSPSFLSASVGDRVTITCKASQDVGTAVAWYQQKPGKAPKLLIYWASTRHTGVPSRFSGSGSGTEFTLTISSLQPEDFATYFCQQYSSYPWTFGGGTKVEIK
On to B2, for which the Ag50 worked out at 5.08 nM in test [2] and 36.1 nM in test [3].

B3: 41D2HzL4H3 (antibody, V domains shown)
VH: B2 VH
VL: B2 VL
notes: Humanized antibody; the description mentions human IgG4 S228P and kappa; also called parent antibody; humanized antibody of 41D2-2C3D7
Regarding B3, the “fold higher affinity than Pembrolizumab” value in test [4] is 4.2 times. Besides, in test [1], binding was characterised by a dissociation constant (Kd) of 1.92 nM, the koff is 0.000542 s⁻¹ and the association rate constant (kon) turned out to be 283000 M⁻¹ s⁻¹. Also, in test [5], the dissociation constant Kd came to 1.27 nM, the koff came out at 0.000589 s⁻¹ and the kon was 464000 M⁻¹ s⁻¹. For the same molecule, in test [6], the Kd was 5.2 nM, the koff was 0.00153 s⁻¹ and the kon stood at 295000 M⁻¹ s⁻¹.

B4: Ab2005Am08 (antibody, V domains shown)
VH: B2 VH with S56R
VL: B2 VL
notes: also called clone YC215H3 as IgG
Take B4: the “fold affinity against the parent antibody” value in test [7] and in test [8] was roughly 2 times throughout. In addition, the Ag50 in test [2] was determined as 1.26 nM; in test [3], 2.42 nM. In addition, the Kd in test [5] was determined as 0.504 nM; in test [6], 1.52 nM. Moreover, the figures for the koff in test [5] and in test [6] were 0.00023 s⁻¹ and 0.000486 s⁻¹, respectively. The values for the kon in test [5] and in test [6] were 457000 M⁻¹ s⁻¹ and 320000 M⁻¹ s⁻¹, respectively.

Values taken from patent EP4293046A1 (Shanghai Jemincare Pharmaceuticals Co., Ltd., dated 2023).
